From article PMC11497598

What was measured:
Assay in all cases: analytical SEC
Details in all cases: cell culture supernatant of Expi293F cells; parent: est. 72; read off a plot
[1] = biological target: B/Iowa/06/2017 HA HA1 213A
[2] = biological target: B/Iowa/06/2017 HA HA1 220F
[3] = biological target: B/Iowa/06/2017 HA HA1 220N
[4] = biological target: B/Iowa/06/2017 HA HA1 220Q
[5] = biological target: B/Iowa/06/2017 HA HA1 220T
[6] = biological target: B/Iowa/06/2017 HA HA1 259V
[7] = biological target: B/Iowa/06/2017 HA HA1 314M
[8] = biological target: B/Iowa/06/2017 HA HA1 H311M
[9] = biological target: B/Iowa/06/2017 HA HA1 K209F
[10] = biological target: B/Iowa/06/2017 HA HA1 K209I
[11] = biological target: B/Iowa/06/2017 HA HA1 K209L
[12] = biological target: B/Iowa/06/2017 HA HA1 K209Q
[13] = biological target: B/Iowa/06/2017 HA HA1 K209R
[14] = biological target: B/Iowa/06/2017 HA HA1 K209T
[15] = biological target: B/Iowa/06/2017 HA HA1 K209Y
[16] = biological target: B/Iowa/06/2017 HA HA1 T211V
[17] = biological target: B/Iowa/06/2017 HA HA1 T218N
[18] = biological target: B/Iowa/06/2017 HA HA1 T218V
[19] = biological target: B/Iowa/06/2017 HA HA1 V217K
[20] = biological target: B/Iowa/06/2017 HA HA1 V217W
[21] = biological target: B/Iowa/06/2017 HA HA2 11P
[22] = biological target: B/Iowa/06/2017 HA HA2 15P
[23] = biological target: B/Iowa/06/2017 HA HA2 18P
[24] = biological target: B/Iowa/06/2017 HA HA2 29P
[25] = biological target: B/Iowa/06/2017 HA HA2 30W
[26] = biological target: B/Iowa/06/2017 HA HA2 67T
[27] = biological target: B/Iowa/06/2017 HA HA2 91I
[28] = biological target: B/Iowa/06/2017 HA HA2 93A
[29] = biological target: B/Iowa/06/2017 HA HA2 111Q
[30] = biological target: B/Iowa/06/2017 HA HA2 116R
[31] = biological target: B/Iowa/06/2017 HA HA2 116W
[32] = biological target: B/Iowa/06/2017 HA HA2 D71P
[33] = biological target: B/Iowa/06/2017 HA HA2 E113F
[34] = biological target: B/Iowa/06/2017 HA HA2 E113L
[35] = biological target: B/Iowa/06/2017 HA HA2 E113Q
[36] = biological target: B/Iowa/06/2017 HA HA2 E113W
[37] = biological target: B/Iowa/06/2017 HA HA2 G68L
[38] = biological target: B/Iowa/06/2017 HA HA2 G68Y
[39] = biological target: B/Iowa/06/2017 HA HA2 H22Y
[40] = biological target: B/Iowa/06/2017 HA HA2 H114I
[41] = biological target: B/Iowa/06/2017 HA HA2 H114Q
[42] = biological target: B/Iowa/06/2017 HA HA2 H114W
[43] = biological target: B/Iowa/06/2017 HA HA2 H114Y
[44] = biological target: B/Iowa/06/2017 HA HA2 Q64F
[45] = biological target: B/Iowa/06/2017 HA HA2 Q64P
[46] = biological target: B/Iowa/06/2017 HA HA2 Q64W
[47] = biological target: B/Iowa/06/2017 HA HA2 Q64Y
[48] = biological target: B/Iowa/06/2017 HA HA2 S40A
[49] = biological target: B/Iowa/06/2017 HA HA2 S110R
[50] = biological target: B/Iowa/06/2017 HA HA2 S110W

## wild-type soluble hemagglutinin (HA) of influenza B/Iowa/06/2017 HA1:213A
[1]
  other: trimer fraction: 82%

## wild-type soluble hemagglutinin (HA) of influenza B/Iowa/06/2017 HA1:220F
[2]
  other: trimer fraction: 85%

## wild-type soluble hemagglutinin (HA) of influenza B/Iowa/06/2017 HA1:220N
[3]
  other: trimer fraction: 71%

## wild-type soluble hemagglutinin (HA) of influenza B/Iowa/06/2017 HA1:220Q
[4]
  other: trimer fraction: 62%

## wild-type soluble hemagglutinin (HA) of influenza B/Iowa/06/2017 HA1:220T
[5]
  other: trimer fraction: 79%

## wild-type soluble hemagglutinin (HA) of influenza B/Iowa/06/2017 HA1:259V
[6]
  other: trimer fraction: 92%

## wild-type soluble hemagglutinin (HA) of influenza B/Iowa/06/2017 HA1:314M
[7]
  other: trimer fraction: 49%

## wild-type soluble hemagglutinin (HA) of influenza B/Iowa/06/2017 HA1:H311M
[8]
  other: trimer fraction: 68%

## wild-type soluble hemagglutinin (HA) of influenza B/Iowa/06/2017 HA1:K209F
[9]
  other: trimer fraction: 96%

## wild-type soluble hemagglutinin (HA) of influenza B/Iowa/06/2017 HA1:K209I
[10]
  other: trimer fraction: 93%

## wild-type soluble hemagglutinin (HA) of influenza B/Iowa/06/2017 HA1:K209L
[11]
  other: trimer fraction: 96%

## wild-type soluble hemagglutinin (HA) of influenza B/Iowa/06/2017 HA1:K209Q
[12]
  other: trimer fraction: 98%

## wild-type soluble hemagglutinin (HA) of influenza B/Iowa/06/2017 HA1:K209R
[13]
  other: trimer fraction: 79%

## wild-type soluble hemagglutinin (HA) of influenza B/Iowa/06/2017 HA1:K209T
[14]
  other: trimer fraction: 98%

## wild-type soluble hemagglutinin (HA) of influenza B/Iowa/06/2017 HA1:K209Y
[15]
  other: trimer fraction: 92%

## wild-type soluble hemagglutinin (HA) of influenza B/Iowa/06/2017 HA1:T211V
[16]
  other: trimer fraction: 78%

## wild-type soluble hemagglutinin (HA) of influenza B/Iowa/06/2017 HA1:T218N
[17]
  other: trimer fraction: 89%

## wild-type soluble hemagglutinin (HA) of influenza B/Iowa/06/2017 HA1:T218V
[18]
  other: trimer fraction: 69%

## wild-type soluble hemagglutinin (HA) of influenza B/Iowa/06/2017 HA1:V217K
[19]
  other: trimer fraction: 91%

## wild-type soluble hemagglutinin (HA) of influenza B/Iowa/06/2017 HA1:V217W
[20]
  other: trimer fraction: 96%

## wild-type soluble hemagglutinin (HA) of influenza B/Iowa/06/2017 HA2:11P
[21]
  other: trimer fraction: 76%

## wild-type soluble hemagglutinin (HA) of influenza B/Iowa/06/2017 HA2:15P
[22]
  other: trimer fraction: 69%

## wild-type soluble hemagglutinin (HA) of influenza B/Iowa/06/2017 HA2:18P
[23]
  other: trimer fraction: 57%

## wild-type soluble hemagglutinin (HA) of influenza B/Iowa/06/2017 HA2:29P
[24]
  other: trimer fraction: 77%

## wild-type soluble hemagglutinin (HA) of influenza B/Iowa/06/2017 HA2:30W
[25]
  other: trimer fraction: 69%

## wild-type soluble hemagglutinin (HA) of influenza B/Iowa/06/2017 HA2:67T
[26]
  other: trimer fraction: 77%

## wild-type soluble hemagglutinin (HA) of influenza B/Iowa/06/2017 HA2:91I
[27]
  other: trimer fraction: 56%

## wild-type soluble hemagglutinin (HA) of influenza B/Iowa/06/2017 HA2:93A
[28]
  other: trimer fraction: 87%

## wild-type soluble hemagglutinin (HA) of influenza B/Iowa/06/2017 HA2:111Q
[29]
  other: trimer fraction: 84%

## wild-type soluble hemagglutinin (HA) of influenza B/Iowa/06/2017 HA2:116R
[30]
  other: trimer fraction: 86%

## wild-type soluble hemagglutinin (HA) of influenza B/Iowa/06/2017 HA2:116W
[31]
  other: trimer fraction: 90%

## wild-type soluble hemagglutinin (HA) of influenza B/Iowa/06/2017 HA2:D71P
[32]
  other: trimer fraction: 88%

## wild-type soluble hemagglutinin (HA) of influenza B/Iowa/06/2017 HA2:E113F
[33]
  other: trimer fraction: 98%

## wild-type soluble hemagglutinin (HA) of influenza B/Iowa/06/2017 HA2:E113L
[34]
  other: trimer fraction: 97%

## wild-type soluble hemagglutinin (HA) of influenza B/Iowa/06/2017 HA2:E113Q
[35]
  other: trimer fraction: 97%

## wild-type soluble hemagglutinin (HA) of influenza B/Iowa/06/2017 HA2:E113W
[36]
  other: trimer fraction: 100%

## wild-type soluble hemagglutinin (HA) of influenza B/Iowa/06/2017 HA2:G68L
[37]
  other: trimer fraction: 97%

## wild-type soluble hemagglutinin (HA) of influenza B/Iowa/06/2017 HA2:G68Y
[38]
  other: trimer fraction: 96%

## wild-type soluble hemagglutinin (HA) of influenza B/Iowa/06/2017 HA2:H22Y
[39]
  other: trimer fraction: 85%

## wild-type soluble hemagglutinin (HA) of influenza B/Iowa/06/2017 HA2:H114I
[40]
  other: trimer fraction: 55%

## wild-type soluble hemagglutinin (HA) of influenza B/Iowa/06/2017 HA2:H114Q
[41]
  other: trimer fraction: 65%

## wild-type soluble hemagglutinin (HA) of influenza B/Iowa/06/2017 HA2:H114W
[42]
  other: trimer fraction: 43%

## wild-type soluble hemagglutinin (HA) of influenza B/Iowa/06/2017 HA2:H114Y
[43]
  other: trimer fraction: 65%

## wild-type soluble hemagglutinin (HA) of influenza B/Iowa/06/2017 HA2:Q64F
[44]
  other: trimer fraction: 96%

## wild-type soluble hemagglutinin (HA) of influenza B/Iowa/06/2017 HA2:Q64P
[45]
  other: trimer fraction: 65%

## wild-type soluble hemagglutinin (HA) of influenza B/Iowa/06/2017 HA2:Q64W
[46]
  other: trimer fraction: 93%

## wild-type soluble hemagglutinin (HA) of influenza B/Iowa/06/2017 HA2:Q64Y
[47]
  other: trimer fraction: 98%

## wild-type soluble hemagglutinin (HA) of influenza B/Iowa/06/2017 HA2:S40A
[48]
  other: trimer fraction: 52%

## wild-type soluble hemagglutinin (HA) of influenza B/Iowa/06/2017 HA2:S110R
[49]
  other: trimer fraction: 86%

## wild-type soluble hemagglutinin (HA) of influenza B/Iowa/06/2017 HA2:S110W
[50]
  other: trimer fraction: 51%
